Assay results published in patent publication US20200392227A1 (LYVGEN BIOPHARMA, published 2020).
Read-outs that look alike come from different tables or passages of the source. Values belong to the binder of their own block, whether it stands above or below them.

Assays:
Experiment in all cases: BLI
[1] = target: T1, human FcRIIIA-V158 protein (MednaBio, E1035) (human, UniProt P08637 17-208)
T1 construct: Bought; also called FcγRIIIA(V); FcgRIIIA(V)

[2] = target: T2, human FcRI protein (MednaBio, E1031) (human, UniProt P12314 16-288, limits assumed)
T2 construct: Bought; loaded on anti-penta-HIS biosensors; also called FcγRI

[3] = target: T3, human FcRIIA protein (MednaBio, E1033) (human, UniProt P12318 34-218, limits assumed)
T3 construct: Bought; also called FcγRIIA
T3 sequence (looked up): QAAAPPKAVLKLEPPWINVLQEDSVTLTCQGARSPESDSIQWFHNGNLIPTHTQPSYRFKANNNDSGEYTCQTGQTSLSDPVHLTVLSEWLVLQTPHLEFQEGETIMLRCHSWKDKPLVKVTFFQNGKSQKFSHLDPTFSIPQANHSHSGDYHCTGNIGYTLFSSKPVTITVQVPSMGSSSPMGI

[4] = target: T4, human FcRIIB/C protein (MednaBio, E1034) (human, UniProt P31994 43-217, limits assumed)
T4 construct: Bought as FcRIIB/C; also called FcγRIIB; CD32B
T4 sequence (looked up): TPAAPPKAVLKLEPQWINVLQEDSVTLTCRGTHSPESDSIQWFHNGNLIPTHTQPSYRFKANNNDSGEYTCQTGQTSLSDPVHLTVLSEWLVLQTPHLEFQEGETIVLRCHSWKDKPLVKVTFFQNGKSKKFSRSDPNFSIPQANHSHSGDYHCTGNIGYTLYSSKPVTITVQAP

[5] = target: T1, human FcRIIIA-V158 protein (MednaBio, …); remark: listed apart in the source
[6] = target: T5, human FcRn protein (MednaBio, E1032) (human, UniProt P55899 24-297; P61769 21-119)
T5 construct: Bought; assays at pH 6

[7] = target: T2, human FcRI protein (MednaBio, E1031); remark: listed apart in the source
How it was run: (§1)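 Binding was measured by biolayer interferometry on an Octet Red96 System, with commercial human Fc receptor proteins loaded at 20 μg/mL onto anti-penta-HIS biosensors. Sensors were dipped into an 8-point 1:3 dilution series of test IgG starting at 300 nM in PBS with 0.1% BSA and 0.02% Tween-20. Fcγ receptor assays ran at pH 7.2 and FcRn assays at pH 6. Kd, kon and koff came from global fitting to a 1:1 binding model.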

[8] = target: T3, human FcRIIA protein (MednaBio, E1033); remark: listed apart in the source
How it was run: as §1

[9] = target: T4, human FcRIIB/C protein (MednaBio, E1034); remark: listed apart in the source
How it was run: as §1

[10] = target: T1, human FcRIIIA-V158 protein (MednaBio, …); remark: listed apart in the source
How it was run: as §1

[11] = target: T5, human FcRn protein (MednaBio, E1032); remark: listed apart in the source
How it was run: as §1

[12] = target: T2, human FcRI protein (MednaBio, E1031); remark: listed apart in the source
How it was run: as §1

[13] = target: T3, human FcRIIA protein (MednaBio, E1033); remark: listed apart in the source
How it was run: as §1

[14] = target: T4, human FcRIIB/C protein (MednaBio, E1034); remark: listed apart in the source
How it was run: as §1

[15] = target: T1, human FcRIIIA-V158 protein (MednaBio, …); remark: listed apart in the source
How it was run: as §1

[16] = target: T5, human FcRn protein (MednaBio, E1032); remark: listed apart in the source
How it was run: as §1

T1 sequence (P08637 17-208 F176V): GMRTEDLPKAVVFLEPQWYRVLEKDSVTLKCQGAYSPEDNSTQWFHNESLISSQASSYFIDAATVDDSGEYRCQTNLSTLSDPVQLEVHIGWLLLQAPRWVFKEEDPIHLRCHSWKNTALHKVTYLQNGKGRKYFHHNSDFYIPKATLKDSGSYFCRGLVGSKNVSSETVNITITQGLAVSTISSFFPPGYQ
T2 sequence (P12314 16-288 limits assumed): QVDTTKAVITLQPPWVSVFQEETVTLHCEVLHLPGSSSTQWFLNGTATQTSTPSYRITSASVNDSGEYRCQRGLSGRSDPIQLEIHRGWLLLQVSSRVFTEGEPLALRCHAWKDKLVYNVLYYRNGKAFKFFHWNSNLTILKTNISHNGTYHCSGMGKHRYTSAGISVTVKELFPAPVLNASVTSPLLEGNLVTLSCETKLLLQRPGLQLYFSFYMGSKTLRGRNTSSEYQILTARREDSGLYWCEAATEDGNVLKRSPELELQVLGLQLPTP

Kd [1]: 60 nM | koff [1]: 0.027 s⁻¹ | kon [1]: 450000 M⁻¹ s⁻¹ | Kd [2]: 5.6 nM | koff [2]: 0.0012 s⁻¹ | kon [2]: 220000 M⁻¹ s⁻¹ | Kd [3]: 56 nM | koff [3]: 0.032 s⁻¹ | kon [3]: 570000 M⁻¹ s⁻¹ | Kd [4]: 130 nM | koff [4]: 0.016 s⁻¹ | kon [4]: 120000 M⁻¹ s⁻¹ | Kd [5]: 60 nM | koff [5]: 0.027 s⁻¹ | kon [5]: 450000 M⁻¹ s⁻¹ | Kd [6]: 16 nM | koff [6]: 0.008 s⁻¹ | kon [6]: 480000 M⁻¹ s⁻¹ | Kd [7]: 5.6 nM | koff [7]: 0.0012 s⁻¹ | kon [7]: 220000 M⁻¹ s⁻¹ | Kd [8]: 56 nM | koff [8]: 0.032 s⁻¹ | kon [8]: 570000 M⁻¹ s⁻¹ | Kd [9]: 130 nM | koff [9]: 0.016 s⁻¹ | kon [9]: 120000 M⁻¹ s⁻¹ | Kd [10]: 60 nM | koff [10]: 0.027 s⁻¹ | kon [10]: 450000 M⁻¹ s⁻¹ | Kd [11]: 16 nM | koff [11]: 0.008 s⁻¹ | kon [11]: 480000 M⁻¹ s⁻¹ | Kd [12]: 5.6 nM | koff [12]: 0.0012 s⁻¹ | kon [12]: 220000 M⁻¹ s⁻¹ | Kd [13]: 56 nM | koff [13]: 0.032 s⁻¹ | kon [13]: 570000 M⁻¹ s⁻¹ | Kd [14]: 130 nM | koff [14]: 0.016 s⁻¹ | kon [14]: 120000 M⁻¹ s⁻¹ | Kd [15]: 60 nM | koff [15]: 0.027 s⁻¹ | kon [15]: 450000 M⁻¹ s⁻¹ | Kd [16]: 16 nM | koff [16]: 0.008 s⁻¹ | kon [16]: 480000 M⁻¹ s⁻¹
B1: wild-type human IgG1 control (antibody)
heavy: not shown
light: SYELTQPPSVSVSPGQTASITCSGDNIGDQYAHWYQQKPGQSPVLVIYQDKNRPSGIPERFSGSNSGNTATLTISGTQAMDEADYYCATYTGFGSLAVFGGGTKLTVLGQPKAAPSVTLFPPSSEELQANKATLVCLISDFYPGAVTVAWKADSSPVKAGVETTTPSKQSNNKYAASSYLSLTPEQWKSHRSYSCQVTHEGSTVEKTVAPTECS
notes: Control IgG

Kd [1]: 550 nM | koff [1]: 0.092 s⁻¹ | kon [1]: 170000 M⁻¹ s⁻¹ | Kd [2]: 4.8 nM | koff [2]: 0.0017 s⁻¹ | kon [2]: 360000 M⁻¹ s⁻¹ | Kd [3]: 400 nM | koff [3]: 0.055 s⁻¹ | kon [3]: 140000 M⁻¹ s⁻¹ | Kd [4]: 400 nM | koff [4]: 0.05 s⁻¹ | kon [4]: 140000 M⁻¹ s⁻¹ | Kd [5]: 550 nM | koff [5]: 0.092 s⁻¹ | kon [5]: 170000 M⁻¹ s⁻¹ | Kd [6]: 18 nM | koff [6]: 0.012 s⁻¹ | kon [6]: 640000 M⁻¹ s⁻¹ | Kd [7]: 4.8 nM | koff [7]: 0.0017 s⁻¹ | kon [7]: 360000 M⁻¹ s⁻¹ | Kd [8]: 400 nM | koff [8]: 0.055 s⁻¹ | kon [8]: 140000 M⁻¹ s⁻¹ | Kd [9]: 400 nM | koff [9]: 0.05 s⁻¹ | kon [9]: 140000 M⁻¹ s⁻¹ | Kd [10]: 550 nM | koff [10]: 0.092 s⁻¹ | kon [10]: 170000 M⁻¹ s⁻¹ | Kd [11]: 18 nM | koff [11]: 0.012 s⁻¹ | kon [11]: 640000 M⁻¹ s⁻¹ | Kd [12]: 4.8 nM | koff [12]: 0.0017 s⁻¹ | kon [12]: 360000 M⁻¹ s⁻¹ | Kd [13]: 400 nM | koff [13]: 0.055 s⁻¹ | kon [13]: 140000 M⁻¹ s⁻¹ | Kd [14]: 400 nM | koff [14]: 0.05 s⁻¹ | kon [14]: 140000 M⁻¹ s⁻¹ | Kd [15]: 550 nM | koff [15]: 0.092 s⁻¹ | kon [15]: 170000 M⁻¹ s⁻¹ | Kd [16]: 18 nM | koff [16]: 0.012 s⁻¹ | kon [16]: 640000 M⁻¹ s⁻¹
B2: wild-type human IgG4 control (antibody)
heavy: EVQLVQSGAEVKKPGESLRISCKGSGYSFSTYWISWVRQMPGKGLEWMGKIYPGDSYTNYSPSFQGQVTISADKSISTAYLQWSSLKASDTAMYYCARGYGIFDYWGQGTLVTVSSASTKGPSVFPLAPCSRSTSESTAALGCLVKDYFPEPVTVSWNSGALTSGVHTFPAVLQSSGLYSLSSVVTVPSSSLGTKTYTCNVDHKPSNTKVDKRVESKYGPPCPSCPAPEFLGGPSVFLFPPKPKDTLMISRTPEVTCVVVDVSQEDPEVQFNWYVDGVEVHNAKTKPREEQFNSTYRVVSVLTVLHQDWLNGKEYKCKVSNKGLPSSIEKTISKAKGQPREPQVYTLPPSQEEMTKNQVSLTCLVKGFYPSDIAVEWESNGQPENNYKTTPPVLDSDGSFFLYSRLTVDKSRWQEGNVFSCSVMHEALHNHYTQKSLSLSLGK
light: B1 light
notes: Control IgG
